# Reference: the DeepSol protein solubility set
# Assay: soluble on expression in E. coli; label from the status in PepcDB or PDB records
row,Sequence,soluble on expression in E. coli
1,MSQTILFVCATGIATSTAVTEKVMEYCKEQGLNVNYSQTNVASLPGNTDGVALVVSTTKVPYELDVPVVNGLPIITGIGEEKVLAQIVSILKK,soluble
2,WQGLSSKGDLPQVEITKAFFAKQADEVTLQQADVVLVLQQEDGWLYGERLRDGETGWFPEDFARFI,soluble
3,MDSKSHGWLIGANGTILETHDGGEHWEPRTFDFLRMDEEINYRFESISCYGNEGWIVGKPPILLHTQNGGKDWERIPLSSKLPGEPVLITALGPNRAELATTAGAIYTTDNGGKNWKALVKETIDATLNRTTSSGVTGASYYTGTVISITRDCNGYYLAISSRGNFYVTWHPGQEYWTPHPRDSSRRIQSMGFVQNDIHKGLWMANNGGFLGFSPPNPSLDTVSSIPFQRVDIRTGGYGILDVAFHQQKRNEVWASVGSGILYRSFDGGKHWEKDPWLDHLGSVLYRIKFVENSGFILGAKGTLLRYNG,soluble
4,MAHHHHHHMNVKVEEGHPYNSYAEIKKRKTKKKKYIQNGRAGNNVEDNVDDNVEDNVGNNVDDNVEDNVGNNVDDNVDNNVDDNVKNRLSPKNNEKSNPRHKKKNTSKSPICDGRKKDIEFHTLYESDEKNNMVSRRSSVESIGEEKDMKADVKKNDINYKVKLNTLMLQSYLHKSYDKVSNILKKTSQTFMKKSLSYETEKVDDKTGNNIQNNNNEKNETHGNINYDQDDFVQNFNKIFNNMIENPTNDLSEEEKKFFEQNSQCINKMLHENASCQKNKKEKILKKYKKKIIENKDISSLYDKFKELLDERTLLFKLIIYYKNINYNYKQHIDKIQHSYDILISENEQLNLNNITLKKHIDLFRKGDNIKRDDNEYVK,soluble
5,MSSQLNHGTLPKISIVTPSYNQAQYLEATMRSILDQGYPDLEYIVMDGGSTDGSTEIIQKYSDRLTYWESAPDKGQADAIFRGFERATGEIFCYVNSDDLLLPGSLEMVGRWFREHPDEEWVVGGTILIDGLGIPIIRSRRGLPEADLGVKVTFKRLLLHNCGGFHQPASFWRRSAFEQAGGFDRTLRFCFDYDLFFRLAKRRPSGRIRSFLAAFRYHPASKTSTLESVFREENETLWRRYGRYLYSENQIRNFAHKQTTRDMWNNRIIKLGFYLKILNVSNAIGSLEHHHHHH,not soluble
6,METRAAENTAIFMCKCCNLFSPNQSELLSHVSEKHMEEGVNVDEIIIPLRPLSTPEPPNSSKTRDEFLVMKRKRGRPKGSTKKSSTEEELAENIVSPTEDSPLAPEEGNSLPPSSLECSKCCRKFSNTRQLRKHICIIVLNLGEEEGEAGNESDLELEKKCKEDDREKASKRPRSQKTEKVQKISGKEARQLSGAKKPIISVVLTAHEAIPGATKIVPVEAGPPETGATNSETTSADLVPRRGYQEYAIQQTPYEQPMKSSRLGPTQLKIFTCEYCNKVFKFKHSLQAHLRIHTNEKPYKCPQCSYASAIKANLNVHLRKHTGEKFACDYCSFTCLSKGHLKVHIERVHKKIKQHCRFCKKKYSDVKNLIKHIRDAHDPQDKKVKEALDELCLMTREGKRQLLYDCHICERKFKNELDRDRHMLVHGDKWPFACELCGHGATKYQALELHVRKHPFVYVCAVCRKKFVSSIRLRTHIKEVHGAAQEALVFTSSINQSFCLLEPGGDIQQEALGDQLQLVEEEFALQGVNALKEEACPGDTQLEEGRKEPEAPGEMPAPAVHLASPQAESTALPPCELETTVVSSSDLHSQEVVSDDFLLKNDTSSAEAHAAPEKPPDMQHRSSVQTQGEVITLLLSKAQSAGSDQESHGAQSPLGEGQNMAVLSAGDPDPSRCLRSNPAEASDLLPPVAGGGDTITHQPDSCKAAPEHRSGITAFMKVLNSLQKKQMNTSLCERIRKVYGDLECEYCGKLFWYQVHFDMHVRTHTREHLYYCSQCHYSSITKNCLKRHVIQKHSNILLKCPTDGCDYSTPDKYKLQAHLKVHTALDKRSYSCPVCEKSFSEDRLIKSHIKTNHPEVSMSTISEVLGRRVQLKGLIGKRAMKCPYCDFYFMKNGSDLQRHIWAHEGVKPFKCSLCEYATRSKSNLKAHMNRHSTEKTHLCDMCGKKFKSKGTLKSHKLLHTADGKQFKCTVCDYTAAQKPQLLRHMEQHVSFKPFRCAHCHYSCNISGSLKRHYNRKHPNEEYANVGTGELAAEVLIQQGGLKCPVCSFVYGTKWEFNRHLKNKHGLKVVEIDGDPKWETATEAPEEPSTQYLHITEAEEDVQGTQAAVAALQDLRYTSESGDRLDPTAVNILQQIIELGAETHDATALASVVAMAPGTVTVVKQVTEEEPSSNHTVMIQETVQQASVELAEQHHLVVSSDDVEGIETVTVYTQGGEASEFIVYVQEAMQPVEEQAVEQPAQEL,soluble
7,MQNKIQVKSVEKRENALIFCAENSEIEVKELSARNHVLVDSDNLSFLYILENESSFIYVSIPHTCWEAMHEAMNNDVVMFVRVNDIEMELEGLKEEVEYLVENIEGNANYGEELVTAVEKVFL,not soluble
8,MASSAQSGGSSGGPAVPTVQRGIIKMVLSGCAIIVRGQPRGGPPPERQINLSNIRAGNLARRAAATQPDAKDTPDEPWAFPAREFLRKKLIGKEVCFTIENKTPQGREYGMIYLGKDTNGENIAESLVAEGLATRREGMRANNPEQNRLSECEEQAKAAKKGMWSEGNGSHTIRDLKYTIENPRHFVDSHHQKPVNAIIEHVRDGSVVRALLLPDYYLVTVMLSGIKCPTFRREADGSETPEPFAAEAKFFTESRLLQRDVQIILESCHNQNILGTILHPNGNITELLLKEGFARCVDWSIAVYTRGAEKLRAAERVAKERRLRIWRDYVAPTANLDQKDKQFVAKVMQVLNADAIVVKLNSGDYKTIHLSSIRPPRLEGENTQDKNKKLRPLYDIPYMFEAREFLRKKLIGKKVNVTVDYIRPASPATETVPAFSERTCATVTIGGINIAEALVSKGLATVIRYRQDDDQRSSHYDELLAAEARAIKNGKGLHSKKEVPIHRVADISGDTQKAKQFLPFLQRAGRSEAVVEYVFSGSRLKLYLPKETCLITFLLAGIECPRGARNLPGLVQEGEPFSEEATLFTKELVLQREVEVEVESMDKAGNFIGWLHIDGANLSVLLVEHALSKVHFTAERSSYYKSLLSAEEAAKQKKEKVWAHYEEQPVEEVMPVLEEKERSASYKPVFVTEITDDLHFYVQDVETGTQLEKLMENMRNDIASHPPVEGSYAPRRGEFCIAKFVDGEWYRARVEKVESPAKIHVFYIDYGNREVLPSTRLGTLSPAFSTRVLPAQATEYAFAFIQVPQDDDARTDAVDSVVRDIQNTQCLLNVEHLSAGCPHVTLQFADSKGDVGLGLVKEGLVMVEVRKEKQFQKVITEYLNAQESAKSARLNLWRYGDFRADDADEFGYSR,soluble
9,MGSDKIHHHHHHETTSTQTVDEQAVFNDTQSAMLAVNGLHKLMWTGDLSSSAFYGGYDMLMIWYEVMGDDLVYTYSNAQFQKQAQWSSHRNATIGSATHFYRLLQYFISNSSMIIDNIDAAEGLESERNYIKGQAHFYRAFAYFTMVQMYGGRYKAEGDNTQLGVVIRNDNSTEPRARASVEEVYTQINEDIDLAIQLLGATEEKRTNKSHIDLHVARGLKARILLTQGKWLEAAEMAKLVVDLSGAKLQDDTYTTLNDRFSDQSNTEWLWGSNPLLQQAPNLTHFHGYMSNEIISYNGNTPRAIYNKLYDKISDTDVRKGIWFPRATDPNTLPRPIRAECNSKAYANYMANKFIVSDPTTKGGRDVPFMRLPEMMLIMAEGYARAGEPGKAAQALYPLASHRDPEYTLSTKTGENLIEEVMTQRRIELWGEGFRWFDLKRLNMDLDRGPAPRPEVFPNGLIEYWNKDAMPKVVDPEASNYNMYGDGTVTGNGNRYRPAGHRDWQWAIPDKETQLNPLCEPNP,not soluble
10,MSAPKPFVIGIAGGTASGKTTLAQALARTLGERVALLPMDHYYKDLGHLPLEERLRVNYDHPDAFDLALYLEHAQALLRGLPVEMPVYDFRAYTRSPRRTPVRPAPVVILEGILVLYPKELRDLMDLKVFVDADADERFIRRLKRDVLERGRSLEGVVAQYLEQVKPMHLHFVEPTKRYADVIVPRGGQNPVALEMLAAKALARLARMGAA,soluble
11,NSAAIWGEGDVSALQSDTESGAYIEESSMVAADPLADYLSKPKLEALIASTKKQMLAAAKELDFLEAARLRDEAARLEKKLEQLTA,not soluble
12,MITFEKVTVENESVVKEMFKSHSLGEKKVQYCVKVDDTYIGVIDYSVQEERAVLSQLIIHFDYQGYGYGTNTYFTFEEMMKQRNVKEIKVLKEKLTEKAKSFIESFGFTSEDEEYVKKI,not soluble
13,MLDTQTIAIVKSTIPLLAATGPKLTAHFYERMFKHHPELKNIFNMSNQSSGDQREALFNAICAYATNIENLAALLPTVERIAQKHTSLNIQPEHYPIVGEHLIATLDELFSPGQAVLDAWAKAYGVLADVFIQRESQIYQQSETETGGWRTLRRFRIIKKEQQSEVICSFVLAPEDGGQVLHYKPGQYLGIYIEHESLEFQEIRQYSLTTAPNGKTYRIAVKREEQGTVSNLLHRELNEGDIVRIAPPRGDFFLDVSPDTPVALISAGVGQTPMLSMLNTLYSQQHAAPVHWLHAAENGRVHAFADEVSAIAAKMPNLSRHVWYREPDLQDKHGEDYHSQGLMDLSSYQWLADDPKRHYYFCGPLPFMQFIGRQLLAQGIAPEQIHYECFGPHKVI,not soluble
14,MSNTIRLSGIAYESLVNGPGIRRVFFSQGCKHNCIGCFNPDTHDFNGGEERDIEELIKDLADNPFIDGVTFSGGDPLEQANKFIYIAKAARELGLNIWSYTGYKFEYLLEHANEFNKWKEYLENIDVLVDGKFDINKKEDGLKFRGSSNQRIINVKESLKEGKVIELEFLEHHHHHH,not soluble
15,DHSARPKLGIDLQGGTRVTLVPQGQNPTEDQLAQAKSILENRVNGMGVSGASVVSDGNTLVITVPGEDTTQARALGQTSQLLFRPVAKPDAPDTTKLLDAMKEMANRWVEVGVLTPQEANDALSNTAKALAQSEGKKPEDAKAPTVTAKEPKEPANSIESEQLRNKVLEVMKKDRQSTDATTQLSASSLLKCDDTPDPLQGTDDPTKPLVACDPSSGQVYVLSPAPLLQGETDQANGKRLTGNEIDTNRPITGGLNPQTGQMEIGFSFKSDNGDQGSATWAKLTQEYLQKQVAITLDSK,not soluble
16,VFRQTFLEFSQRTVSQARLDIGRKKLQELSSTFARAENEFGVPAGVIAAFWAMETDFGAVQGDFNTRNALVTLSHDCRRPELFRPQLLALIEMVQHGDLDPATNTGAWAGEIGQVQMLPKDIIAFGVDGDGNGHINVKDSAPDAILTAAKFIQHLGFKKGEPWMQEVSVPENLPWEKSGLGGSLTAGDWFALGVTPRDGNKNFASLPAALIMPQGRKGPTFITYPNFNIYLEWNQSFIYTTSAAYFANRLMGAPVY,not soluble
17,SGKVILITGASRGIGLQLVKTVIEEDDECIVYGVARTEAGLQSLQREYGADKFVYRVLDITDRSRMEALVEEIRQKHGKLDGIVANAGMLEPVKSISQSNSEHDIKQWERLFDVNFFSIVSLVALCLPLLKSSPFVGNIVFVSSGASVKPYNGWSAYGCSKAALNHFAMDIASEEPSDKVRAVCIAPGVVDTQMQKDIRETLGPQGMTPKALERFTQLYKTSSLLDPKVPAAVLAQLVLKGIPDSLNGQYLRYNDERLGPVQG,soluble
18,AHHHHHHGSKILWAPWRIEYIRAPKHEGCIFCDFPRENRDRERLILYRGKHAFIIMNNYPYNPGHVMVAPYRHVASVEDLTDEEMLEIMKLAALIMKAIRKVMKPDGFNLGFNIGKVAGAGVDGHVHLHIVPRWNGDTNFMPVIADTKVIPESLEQAYEELKKALEEIENAE,soluble
19,MANSAGSMQQILNQFNHVVAIGGGHGLGRVLSSLDFLGNRLTGIVATTDNGGSTGRLRAEQDCIAWGDLRNCLSQLAHRPSVGSQLFEYRFQGETELSGHNLGNLMLLALDKLCVRPLEAVNLIRHMLKIETNIIPMSEQPTHLVALQASGSKVFGEVNVDKMNEAPIALCLEPQVNATTEACEAIRRADLIILGPGSFLTSIMPPLLLPCFAKALAMTTAPVVFIDNLNEEASPAGQFSIEQRISWCHQVIGKPVITKVLRHSEQLRLGTLVNYFPLRNRHNPQLHDQASLRDALCAVLRIKSGLPLETLVSLEHHHHHH,not soluble
